Assay results taken from publication doi:10.1101/249060 (bioRxiv, 2018).
Residue numbers refer to the chain shown, from its start. Names and notes keep the numbering of the source.

B1: PafE-PafE linear dimer (PafE_(1-155)-PafE_(1-174)) (other)
chain: MVIGLSTGSDDDDVEVIGGVDPRLIAVQENDSDESSLTDLVEQPAKVMRIGTMIKQLLEEVRAAPLDEASRNRLRDIHATSIRELEDGLAPELREELDRLTLPFNEDAVPSDAELRIAQAQLVGWLEGLFHGIQTALFAQQMAARAQLQQMRQGAGSGNSMVIGLSTGSDDDDVEVIGGVDPRLIAVQENDSDESSLTDLVEQPAKVMRIGTMIKQLLEEVRAAPLDEASRNRLRDIHATSIRELEDGLAPELREELDRLTLPFNEDAVPSDAELRIAQAQLVGWLEGLFHGIQTALFAQQMAARAQLQQMRQGALPPGVGKSGQHGHGTGQYL
B2: His6-PafE, wild type, purified alone (natural protein)
chain: MVIGLSTGSDDDDVEVIGGVDPRLIAVQENDSDESSLTDLVEQPAKVMRIGTMIKQLLEEVRAAPLDEASRNRLRDIHATSIRELEDGLAPELREELDRLTLPFNEDAVPSDAELRIAQAQLVGWLEGLFHGIQTALFAQQMAARAQLQQMRQGALPPGVGKSGQHGHGTGQYL
B3: PafE_(P65G) (natural protein)
chain: B2 chain with P65G
B4: PafE_(F138E) (natural protein)
chain: B2 chain with F138E

Molecular target: the molecule itself
Experiment: SEC
B1: binds.
B2: binds.
B3: binds.
B4: binds.
